Test results: patent US20250154272A1 (Astellas, published 2025)
Read-outs that look alike come from different tables or passages of the source. Blank lines part the entries; values can stand above or below the binder they belong to.

Columns and labels:
[1] = biological target: T1, human CLDN4-Myc-DDK expressed on CHO-K1 cells (human, UniProt O14493 1-209); experiment: binding experiment on human CLDN4-Myc-DDK expressing CHO-K1 cells
T1 construct: whole, on cells; also called human CLDN4-Myc-DDK expressing CHO-K1 cells; not shown: Myc-DDK tag of the ORIGENE construct
T1 sequence (looked up): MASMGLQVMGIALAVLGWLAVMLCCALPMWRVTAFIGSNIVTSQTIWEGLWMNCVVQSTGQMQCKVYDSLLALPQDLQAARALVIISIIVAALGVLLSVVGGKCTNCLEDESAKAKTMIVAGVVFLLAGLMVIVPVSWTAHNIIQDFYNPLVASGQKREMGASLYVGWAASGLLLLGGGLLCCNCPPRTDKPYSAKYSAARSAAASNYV

[2] = biological target: T2, human EpCAM-Myc-DDK expressed on CHO-K1 cells (human, UniProt P16422 24-314); experiment: flow cytometry of the clone supernatant on human EpCAM-Myc-DDK expressing CHO-K1 cells
T2 construct: whole, on cells; also called EpCAM expressing cells; not shown: Myc-DDK tag of the ORIGENE construct
T2 sequence (looked up): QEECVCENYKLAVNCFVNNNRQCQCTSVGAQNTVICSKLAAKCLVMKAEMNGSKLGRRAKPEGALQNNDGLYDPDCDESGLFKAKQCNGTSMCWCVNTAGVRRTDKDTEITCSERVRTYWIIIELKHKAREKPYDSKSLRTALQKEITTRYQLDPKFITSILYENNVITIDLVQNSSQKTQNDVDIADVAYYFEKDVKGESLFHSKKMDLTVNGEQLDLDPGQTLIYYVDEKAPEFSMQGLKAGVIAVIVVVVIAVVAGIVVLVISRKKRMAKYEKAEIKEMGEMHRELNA

[3] = biological target: T3, human CLDN4 expressed on CHO-K1 cells (human, UniProt O14493 1-209); experiment: flow cytometry on human CLDN4 expressing CHO-K1, apparent KD
T3 construct: whole, on cells; also called human CLDN4 expressing CHO-K1
T3 sequence (looked up): T1 sequence (looked up)

[4] = biological target: T4, human CD137-His tag protein (R&D Systems, 9220-4B) (human, UniProt Q07011 24-186); experiment: SPR, Biacore T200, antibody captured on Protein A chip, CD137 as analyte
T4 construct: Bought protein; not shown: His tag of the bought protein

[5] = biological target: T5, monkey CD137-His tag-3×FLAG tag fusion protein (monkey); experiment: as above
T5 construct: Residues 1-183 are the encoded extracellular region as stated; also called Monkey CD137-His-3 × FLAG
T5 chain: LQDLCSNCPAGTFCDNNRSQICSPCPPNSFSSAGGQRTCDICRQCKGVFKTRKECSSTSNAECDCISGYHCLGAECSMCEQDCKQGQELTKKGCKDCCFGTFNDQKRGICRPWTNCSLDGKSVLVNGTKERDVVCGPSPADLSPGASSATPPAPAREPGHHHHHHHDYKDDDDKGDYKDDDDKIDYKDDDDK

[6] = biological target: T4, human CD137-His tag protein (R&D …); experiment: ELISA, human CD137-His tag protein immobilized on the plate, anti-human IgG Fc-HRP, A450-A570
[7] = biological target: T4, human CD137-His tag protein (R&D …); experiment: as above; remark: listed apart in the source
[8] = biological target: T4, human CD137-His tag protein (R&D …); experiment: as above; remark: listed apart in the source

- binding result [1]: binds
- binding result [2]: no binding
B1: 3D11 antibody (antibody, V domains shown)
VH: QVQLGQSGPEVKKPGASVKVSCKASGYSFISYGISWVRQAPGQGLEWMGWSSVYNGNTNYVQKFQGRVTMTTDTSASTAYMELRSLRSDDAAVYYCARDSYSSGWSYYYSGMDVWGQGTTVTVSS
VL: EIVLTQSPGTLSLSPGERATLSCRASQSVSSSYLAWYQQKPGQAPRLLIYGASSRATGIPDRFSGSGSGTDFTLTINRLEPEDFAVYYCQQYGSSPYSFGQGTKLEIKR
notes: Purified from the hybridoma supernatant of a VelocImmune mouse: human variable regions with mouse constant regions (chimeric antibody); also called 3D11 clone

- Kd [3]: 11.2 nM
- Kd [4]: 5.81 nM
- koff [4]: 0.00135 s⁻¹
- kon [4]: 232000 M⁻¹ s⁻¹
- Kd [5]: 10.7 nM
- koff [5]: 0.00191 s⁻¹
- kon [5]: 179000 M⁻¹ s⁻¹
- EC50 (read off the curve) [6]: ~10 ng/mL
- EC50 (read off the curve) [7]: ~6 ng/mL
- EC50 (read off the curve) [8]: ~8 ng/mL
B2: anti-CLDN4 (hKM3900)/anti-CD137 scFv bispecific antibody hKM3900_3-34-j6 (bispecific antibody, human IgG1, kappa, L234A L235A)
heavy: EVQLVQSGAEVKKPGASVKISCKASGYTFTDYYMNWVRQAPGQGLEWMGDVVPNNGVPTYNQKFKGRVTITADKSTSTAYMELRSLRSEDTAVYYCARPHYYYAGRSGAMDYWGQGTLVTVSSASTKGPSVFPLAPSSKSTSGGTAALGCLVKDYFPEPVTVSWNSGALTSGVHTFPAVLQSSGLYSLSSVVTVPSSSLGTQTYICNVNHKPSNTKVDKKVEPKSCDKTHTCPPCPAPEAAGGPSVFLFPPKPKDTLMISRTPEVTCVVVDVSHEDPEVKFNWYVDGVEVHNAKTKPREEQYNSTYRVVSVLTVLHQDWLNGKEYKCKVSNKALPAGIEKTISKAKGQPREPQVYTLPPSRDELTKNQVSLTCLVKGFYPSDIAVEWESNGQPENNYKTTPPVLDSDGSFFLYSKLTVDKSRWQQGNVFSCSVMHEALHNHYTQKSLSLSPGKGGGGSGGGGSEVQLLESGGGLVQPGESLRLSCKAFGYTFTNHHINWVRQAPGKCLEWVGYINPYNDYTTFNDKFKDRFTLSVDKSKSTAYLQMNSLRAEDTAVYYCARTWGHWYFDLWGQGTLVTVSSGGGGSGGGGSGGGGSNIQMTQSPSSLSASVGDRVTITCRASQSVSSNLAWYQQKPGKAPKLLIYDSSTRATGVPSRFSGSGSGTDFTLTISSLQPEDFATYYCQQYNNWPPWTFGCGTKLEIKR
light: DIQLTQSPSSLSASVGDRVTITCTASSTVSSTYLHWYQQKPGKAPKLLIYSTSNLASGVPSRFSGSGSGTDYTLTISSLQPEDFATYYCHQYHRSPPTFGQGTKLEIKRTVAAPSVFIFPPSDEQLKSGTASVVCLLNNFYPREAKVQWKVDNALQSGNSQESVTEQDSKDSTYSLSSTLTLSKADYEKHKVYACEVTHQGLSSPVTKSFNRGEC
notes: The heavy chain entry holds the hKM3900 heavy chain (L234A, L235A, P331G), the linker and the 3-34-j6 scFv

- EC50 (read off the curve) [7]: ~4 ng/mL
B3: anti-CLDN4 (hKM3900)/anti-CD137 scFv bispecific antibody hKM3900_L-3-34-j6 (bispecific antibody)
heavy: EVQLVQSGAEVKKPGASVKISCKASGYTFTDYYMNWVRQAPGQGLEWMGDVVPNNGVPTYNQKFKGRVTITADKSTSTAYMELRSLRSEDTAVYYCARPHYYYAGRSGAMDYWGQGTLVTVSS
light (part 1 of 2): B2 light
light (part 2 of 2): EVQLLESGGGLVQPGESLRLSCKAFGYTFTNHHINWVRQAPGKCLEWVGYINPYNDYTTFNDKFKDRFTLSVDKSKSTAYLQMNSLRAEDTAVYYCARTWGHWYFDLWGQGTLVTVSSGGGGSGGGGSGGGGSNIQMTQSPSSLSASVGDRVTITCRASQSVSSNLAWYQQKPGKAPKLLIYDSSTRATGVPSRFSGSGSGTDFTLTISSLQPEDFATYYCQQYNNWPPWTFGCGTKLEIKR
notes: scFv at the light chain C-terminus; not shown: human IgG1 heavy chain constant region; mutation positions by EU index; GS linker
